This is an account of results in patent USRE46877.

In experiment [1] the target is human CD4 antigen expressed on rat T cell line NB2-6TG (human) (UniProt P01730). Kind of experiment: FACS, NB2-6TG cells transfected with human CD4; Experiment 1; control antibody at 100 µg/ml. (Flow cytometry measures light scatter and fluorescence of single cells or particles in a stream.)
For experiment [2] the target is unchanged. Kind of experiment: FACS, NB2-6TG cells transfected with human CD4; Experiment 1; control antibody at 40 µg/ml.
The target is the same in experiment [3]. Kind of experiment: FACS, NB2-6TG cells transfected with human CD4; Experiment 1; control antibody at 2.5 µg/ml.
Experiment [4] has the same target. As to the kind of experiment: FACS, NB2-6TG cells transfected with human CD4; Experiment 1; control antibody at 10 µg/ml.

Consider reshaped CAMPATH-1 antibody, for which the Mean cellular Fluorescence in experiment [1] was determined as 11.6; in experiment [2] it was 9.4; in experiment [3], 8.6; in experiment [4], 9.
